Reference: the Human Domainome abundance scans (Beltran et al. 2025)

B1: Tumor protein 63, residues 545 to 610; numbered along this chain, Q9H3D4 (parent)
chain: TDCSIVSFLARLGCSSCLDYFTTQGLTTIYQIEHYSMDDLASLKIPEQFRHAIWKGILDHRQLHEF

Variants of: B1
Assay: abundance fitness (aPCA) (normalised: wild type 0, dead -1); higher = more abundant; growth selection in yeast, the domain comes from the species named
Details: Homo sapiens

Abundance fitness, by site and new letter:
D38: W -0.085, N -0.071, F -0.07
Q31: S -0.093, A -0.108, L -0.431, N -0.133, I -0.86, E -0.03, G -0.274, V -0.841, K -0.296, F -0.695, H -0.047, P -0.737, W -0.812, D -0.019, C -0.159, R -0.427, Y -0.721
K44: W -0.154, H -0.075, L -0.076, I -0.4, C -0.052, Y -0.083, R -0.014, S -0.015, N -0.021, A -0.037, D -0.011, M -0.039, T -0.061, E 0.002, F -0.081, G 0.013, V -0.23, Q -0.014
M37: D -0.138, A -0.063, V -0.011, C -0.083, Y -0.049, N -0.132, R -0.037, Q -0.07, S -0.083, T -0.076, E -0.014, P -0.014, W -0.071, F -0.009, G -0.215
S42: P -0.176, V -0.011, K 0, Q -0.001, N 0.013, A -0.019, E 0.008, G 0.051, H -0.011, L -0.01, W -0.097, Y -0.069, T -0.01, M -0.001, D 0.008, C -0.061, I 0.004
H34: G -0.014, T -0.084, V -0.27, F -0.102, E -0.007, C -0.141, Q -0.041, W -0.06, S -0.004, L -0.106, N 0.02, M -0.044, A -0.037, K -0.018, I -0.372, P -0.188, Y -0.08
Y35: D -0.698, E -0.706, C -0.099, W 0.001, G -0.635, K -0.147, V -0.118, T -0.318, F -0.012, N -0.392, S -0.251, Q -0.394, P -0.955, I -0.257, H -0.103, R -0.48, A -0.131, M 0.03
L43: H -0.296, T -0.396, C -0.171, G -0.702, R -0.304, P -0.564, M -0.105, K -0.283, Y -0.526, V -0.134, F -0.245, N -0.447, S -0.386, D -0.503
A41: K 0.008, R -0.039, V -0.002, F -0.1, W -0.111, G -0.043, Y -0.103, C 0.012, P -0.734, S -0.04, L -0.06, N -0.024, E -0.012, T -0.028, D -0.035, M -0.088, Q -0.008, H -0.081, I 0.003
T27: M -0.107, V -0.044, I -0.075, N -0.024, S -0.022, R -0.053, W -0.135, L -0.084, P -0.82, K -0.032, Y -0.079, Q -0.049
P46: V -0.922, Q -0.387, N -0.396, S -0.351, L -0.976, F -0.913, R -0.66, W -1.1, D -0.283, I -1.01, K -0.384, M -0.928, G -0.289, A -0.406, H -0.531, T -0.46, E -0.155
